# Data reported in paper doi:10.64898/2025.12.11.693717.
# Tests used:
# [1] = target: DCC I372R mutant, overexpressed in Cos7 cells (UniProt P70211); test: immunostaining of cells or tissue
# [2] = target: Deleted in Colorectal Cancer (DCC), wild type, overexpressed in Cos7 cells (UniProt P70211); test: immunostaining of cells or tissue
substance,measurement,setting,value
recombinant Draxin (ligand),Draxin mean fluorescence on DCC+ cells,[1],0.72
same,Draxin mean fluorescence on DCC+ cells,[2],0.95
